The source of these data is publication PMC10965980.

In this assay the target is mGluR1 (UniProt P97772). Kind of assay: anti-Homer1 IP, mGluR1 western blot. To be noted: reference: wild-type Homer1; sites S117.

For “Homer1 (from UniProt Q9Z2Y3) Homer1 S117A”, the “binding against the reference” value is reported as “stronger”.
